Among the data in paper PMC12384571 are dH and Kd values, retold here.

Test [1] deals with Human FcRn (neonatal Fc receptor for IgG) (human) (UniProt P55899). Kind of test: ITC; 15 uM FcRn in the sample cell, titrated with 100 uM mAb from the syringe (9 injections of 3 uL); 25 °C; 1 x PBS, pH 6.0; independent fit model. For orientation: In ITC the heat of successive injections is recorded.
For another test, the target named is hGHbp ECD (Homo sapiens) (UniProt P10912). Kind of test: SPR. The note with it: cited from earlier work.
Sequence of UniProt P10912 (P10912 19-256): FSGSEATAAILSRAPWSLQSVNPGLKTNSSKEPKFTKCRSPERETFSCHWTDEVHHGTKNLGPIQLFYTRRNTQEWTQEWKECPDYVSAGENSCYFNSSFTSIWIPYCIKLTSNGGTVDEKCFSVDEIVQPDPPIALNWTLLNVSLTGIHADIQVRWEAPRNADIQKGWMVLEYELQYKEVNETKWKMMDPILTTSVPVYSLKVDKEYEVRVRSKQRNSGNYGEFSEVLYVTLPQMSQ

Sequence of UniProt P55899 (P55899 whole entry, looked up, the tested form may be a part): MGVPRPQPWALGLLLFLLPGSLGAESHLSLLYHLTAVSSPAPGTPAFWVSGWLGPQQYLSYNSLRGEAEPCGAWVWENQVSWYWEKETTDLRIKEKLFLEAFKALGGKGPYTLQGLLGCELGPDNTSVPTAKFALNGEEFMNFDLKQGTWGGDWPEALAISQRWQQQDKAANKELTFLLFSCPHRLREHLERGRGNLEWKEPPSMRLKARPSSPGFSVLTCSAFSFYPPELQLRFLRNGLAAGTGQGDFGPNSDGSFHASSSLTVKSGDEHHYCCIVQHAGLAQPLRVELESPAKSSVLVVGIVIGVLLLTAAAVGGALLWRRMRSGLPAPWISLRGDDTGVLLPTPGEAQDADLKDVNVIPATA

Substance wildtype IgG mAb (IgGAwt) (antibody) displayed a dH in test [1] of -5.5 kcal/mol. On the same count and under the same terms, the figure for “YTE mutant IgG mAb (IgGA-YTE) (antibody)” is -12 kcal/mol. The Kd is a measure of binding affinity in units of concentration. Take hGHwt (from UniProt P01241): the Kd with hGHbp ECD (Homo sapiens) is 1.2 nM.
